Experimental data: patent US20200002414A1 (published 2020)
Numbering of substitutions follows the chain as printed. Names and notes keep the numbering of the source. Where two headings read alike, the source gives them in different places. Each block holds one binder with its values, some of them ahead of it.

How the values were obtained:
human Ror2 [1] = target: T1, human Ror2 (human, UniProt Q01974 34-403, limits assumed); assay: ELISA, human Ror2, pH 6.0
T1 construct: also called hROR2; receptor tyrosine kinase-like orphan receptor 2
T1 sequence (Q01974 34-403 limits assumed): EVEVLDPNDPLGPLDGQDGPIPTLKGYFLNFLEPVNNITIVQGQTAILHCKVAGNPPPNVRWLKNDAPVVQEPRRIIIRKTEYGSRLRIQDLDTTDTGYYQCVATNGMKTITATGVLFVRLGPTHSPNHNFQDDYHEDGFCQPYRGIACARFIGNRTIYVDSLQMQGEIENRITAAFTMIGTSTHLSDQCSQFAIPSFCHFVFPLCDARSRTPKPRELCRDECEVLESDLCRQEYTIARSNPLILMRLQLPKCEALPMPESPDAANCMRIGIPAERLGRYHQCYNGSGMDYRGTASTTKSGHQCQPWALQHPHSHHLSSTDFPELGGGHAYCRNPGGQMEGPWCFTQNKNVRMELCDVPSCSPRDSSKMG

human Ror2 [2] = target: T1, human Ror2; assay: ELISA, human Ror2, pH 7.4
human Ror2 [3] = target: T1, human Ror2; assay: ELISA, human Ror2; ratio of signal at pH 6.0 to pH 7.4
human Ror2 [4] = target: T1, human Ror2; assay: ELISA, human Ror2, pH 6.0; remark: listed apart in the source
human Ror2 [5] = target: T1, human Ror2; assay: ELISA, human Ror2, pH 7.4; remark: listed apart in the source
human Ror2 [6] = target: T1, human Ror2; assay: ELISA, human Ror2; ratio of signal at pH 6.0 to pH 7.4; remark: listed apart in the source

B4: HC-F029E (antibody, V domains shown)
VH: EVQLQQSGPELVKPGASVKISCKTSGYTETEYTMHWMKQSHRKSLEWIGGINTNNGGTGYNQKFKGKATLTVDKSSSTAYMELRSLTSEDSAVYFCARGSLYSYGNSYFDYWGQGTLVTVSS
VL: QIVLTQSPAIMSASPGEKVTITCSATSSVSYMHWFQQKPGTSPKLWIYGTSNLASGVPARFSGSGSGTSYSLTISRMEAEDAATYYCQQRSSYPFTFGQGTKVEIK
- Affinity ELISA pH 6.0 (human Ror2 [4]): 1.34
- Affinity ELISA pH 7.4 (human Ror2 [5]): 0.742
- ratio, pH 6.0/7.4 (human Ror2 [6]): 1.81

B5: HC-G050S (antibody, V domains shown)
VH: B4 VH with E29F, G50S
VL: B4 VL
- Affinity ELISA pH 6.0 (human Ror2 [4]): 0.823
- Affinity ELISA pH 7.4 (human Ror2 [5]): 0.318
- ratio, pH 6.0/7.4 (human Ror2 [6]): 2.6

B6: HC-M034D (antibody, V domains shown)
VH: B4 VH with E29F, M34D
VL: B4 VL
- Affinity ELISA pH 6.0 (human Ror2 [4]): 1.24
- Affinity ELISA pH 7.4 (human Ror2 [5]): 0.211
- ratio, pH 6.0/7.4 (human Ror2 [6]): 5.9

B10: HC-M034E (antibody, V domains shown)
VH: B4 VH with E29F, M34E
VL: B4 VL
- Affinity ELISA pH 6.0 (human Ror2 [4]): 1.17
- Affinity ELISA pH 7.4 (human Ror2 [5]): 0.185
- ratio, pH 6.0/7.4 (human Ror2 [6]): 6.3

B13: HC-I051E (antibody, V domains shown)
VH: B4 VH with E29F, I51E
VL: B4 VL
- Affinity ELISA pH 6.0 (human Ror2 [4]): 1.04
- Affinity ELISA pH 7.4 (human Ror2 [5]): 0.1
- ratio, pH 6.0/7.4 (human Ror2 [6]): 10.4

B14: HC-G105D (antibody, V domains shown)
VH: B4 VH with E29F, G105D
VL: B4 VL
- Affinity ELISA pH 6.0 (human Ror2 [4]): 0.509
- Affinity ELISA pH 7.4 (human Ror2 [5]): 0.379
- ratio, pH 6.0/7.4 (human Ror2 [6]): 1.34

B16: HC-G099E (antibody, V domains shown)
VH: B4 VH with E29F, G99E
VL: B4 VL
- Affinity ELISA pH 6.0 (human Ror2 [4]): 0.616
- Affinity ELISA pH 7.4 (human Ror2 [5]): 0.421
- ratio, pH 6.0/7.4 (human Ror2 [6]): 1.46

B19: HC-A097S (antibody, V domains shown)
VH: B4 VH with E29F, A97S
VL: B4 VL
- Affinity ELISA pH 6.0 (human Ror2 [4]): 1.67
- Affinity ELISA pH 7.4 (human Ror2 [5]): 1.69
- ratio, pH 6.0/7.4 (human Ror2 [6]): 1.67

B20: HC-A097M (antibody, V domains shown)
VH: B4 VH with E29F, A97M
VL: B4 VL
- Affinity ELISA pH 6.0 (human Ror2 [4]): 1.98
- Affinity ELISA pH 7.4 (human Ror2 [5]): 1.7
- ratio, pH 6.0/7.4 (human Ror2 [6]): 1.98

B22: HC-A097T (antibody, V domains shown)
VH: B4 VH with E29F, A97T
VL: B4 VL
- Affinity ELISA pH 6.0 (human Ror2 [4]): 1.83
- Affinity ELISA pH 7.4 (human Ror2 [5]): 1.69
- ratio, pH 6.0/7.4 (human Ror2 [6]): 1.67

B25: HC-A097I (antibody, V domains shown)
VH: B4 VH with E29F, A97I
VL: B4 VL
- Affinity ELISA pH 6.0 (human Ror2 [4]): 1.89
- Affinity ELISA pH 7.4 (human Ror2 [5]): 1.73
- ratio, pH 6.0/7.4 (human Ror2 [6]): 1.89

B28: HC-L101F (antibody, V domains shown)
VH: B4 VH with E29F, L101F
VL: B4 VL
- Affinity ELISA pH 6.0 (human Ror2 [4]): 1.46
- Affinity ELISA pH 7.4 (human Ror2 [5]): 1.41
- ratio, pH 6.0/7.4 (human Ror2 [6]): 1.46

B29: HC-D110L (antibody, V domains shown)
VH: B4 VH with E29F, D110L
VL: B4 VL
- Affinity ELISA pH 6.0 (human Ror2 [4]): 1.68
- Affinity ELISA pH 7.4 (human Ror2 [5]): 1.4
- ratio, pH 6.0/7.4 (human Ror2 [6]): 1.68

B32: HC-M034Y (antibody, V domains shown)
VH: B4 VH with E29F, M34Y
VL: B4 VL
- Affinity ELISA pH 6.0 (human Ror2 [4]): 0.903
- Affinity ELISA pH 7.4 (human Ror2 [5]): 0.391
- ratio, pH 6.0/7.4 (human Ror2 [6]): 2.31

Now from value to binder:

- Affinity ELISA pH 6.0 (human Ror2 [1]): 0.406
- Affinity ELISA pH 7.4 (human Ror2 [2]): 0.129
- ratio, pH 6.0/7.4 (human Ror2 [3]): 3.15
B1: LC-V029E (antibody, V domains shown)
VH: B4 VH with E29F
VL: B4 VL with V29E

- Affinity ELISA pH 6.0 (human Ror2 [1]): 0.468
- Affinity ELISA pH 7.4 (human Ror2 [2]): 0.133
- ratio, pH 6.0/7.4 (human Ror2 [3]): 3.52
B2: LC-G049C (antibody, V domains shown)
VH: B4 VH with E29F
VL: B4 VL with G49C

- Affinity ELISA pH 6.0 (human Ror2 [4]): 0.794
- Affinity ELISA pH 7.4 (human Ror2 [5]): 0.655
- ratio, pH 6.0/7.4 (human Ror2 [6]): 1.21
B3: HC-S103G (antibody, V domains shown)
VH: B4 VH with E29F, S103G
VL: B4 VL

- Affinity ELISA pH 6.0 (human Ror2 [1]): 0.69
- Affinity ELISA pH 7.4 (human Ror2 [2]): 0.332
- ratio, pH 6.0/7.4 (human Ror2 [3]): 2.08
B7: LC-H033L (antibody, V domains shown)
VH: B4 VH with E29F
VL: B4 VL with H33L

- Affinity ELISA pH 6.0 (human Ror2 [4]): 1.08
- Affinity ELISA pH 7.4 (human Ror2 [5]): 0.793
- ratio, pH 6.0/7.4 (human Ror2 [6]): 1.36
B8: HC-Y111C (antibody, V domains shown)
VH: B4 VH with E29F, Y111C
VL: B4 VL

- Affinity ELISA pH 6.0 (human Ror2 [4]): 1.47
- Affinity ELISA pH 7.4 (human Ror2 [5]): 0.51
- ratio, pH 6.0/7.4 (human Ror2 [6]): 2.88
B9: HC-Y032D (antibody, V domains shown)
VH: B4 VH with E29F, Y32D
VL: B4 VL

- Affinity ELISA pH 6.0 (human Ror2 [4]): 0.54
- Affinity ELISA pH 7.4 (human Ror2 [5]): 0.157
- ratio, pH 6.0/7.4 (human Ror2 [6]): 3.44
B11: HC-T053E (antibody, V domains shown)
VH: B4 VH with E29F, T53E
VL: B4 VL

- Affinity ELISA pH 6.0 (human Ror2 [1]): 1.1
- Affinity ELISA pH 7.4 (human Ror2 [2]): 0.536
- ratio, pH 6.0/7.4 (human Ror2 [3]): 2.06
B12: LC-H033G (antibody, V domains shown)
VH: B4 VH with E29F
VL: B4 VL with H33G

- Affinity ELISA pH 6.0 (human Ror2 [4]): 1.86
- Affinity ELISA pH 7.4 (human Ror2 [5]): 1.4
- ratio, pH 6.0/7.4 (human Ror2 [6]): 1.68
B15: HC-Y111T (antibody, V domains shown)
VH: B4 VH with E29F, Y111T
VL: B4 VL

- Affinity ELISA pH 6.0 (human Ror2 [4]): 0.799
- Affinity ELISA pH 7.4 (human Ror2 [5]): 0.276
- ratio, pH 6.0/7.4 (human Ror2 [6]): 2.89
B17: HC-R098Q (antibody, V domains shown)
VH: B4 VH with E29F, R98Q
VL: B4 VL

- Affinity ELISA pH 6.0 (human Ror2 [4]): 0.224
- Affinity ELISA pH 7.4 (human Ror2 [5]): 0.115
- ratio, pH 6.0/7.4 (human Ror2 [6]): 1.95
B18: HC-N106E (antibody, V domains shown)
VH: B4 VH with E29F, N106E
VL: B4 VL

- Affinity ELISA pH 6.0 (human Ror2 [4]): 0.995
- Affinity ELISA pH 7.4 (human Ror2 [5]): 0.431
- ratio, pH 6.0/7.4 (human Ror2 [6]): 2.31
B21: HC-N052C (antibody, V domains shown)
VH: B4 VH with E29F, N52C
VL: B4 VL

- Affinity ELISA pH 6.0 (human Ror2 [4]): 0.911
- Affinity ELISA pH 7.4 (human Ror2 [5]): 0.433
- ratio, pH 6.0/7.4 (human Ror2 [6]): 2.1
B23: HC-N052L (antibody, V domains shown)
VH: B4 VH with E29F, N52L
VL: B4 VL

- Affinity ELISA pH 6.0 (human Ror2 [4]): 0.928
- Affinity ELISA pH 7.4 (human Ror2 [5]): 0.353
- ratio, pH 6.0/7.4 (human Ror2 [6]): 2.63
B24: HC-R098H (antibody, V domains shown)
VH: B4 VH with E29F, R98H
VL: B4 VL

- Affinity ELISA pH 6.0 (human Ror2 [4]): 1.75
- Affinity ELISA pH 7.4 (human Ror2 [5]): 1.7
- ratio, pH 6.0/7.4 (human Ror2 [6]): 1.75
B26: HC-W112L (antibody, V domains shown)
VH: B4 VH with E29F, W112L
VL: B4 VL

- Affinity ELISA pH 6.0 (human Ror2 [4]): 0.87
- Affinity ELISA pH 7.4 (human Ror2 [5]): 0.34
- ratio, pH 6.0/7.4 (human Ror2 [6]): 2.56
B27: HC-N052V (antibody, V domains shown)
VH: B4 VH with E29F, N52V
VL: B4 VL

- Affinity ELISA pH 6.0 (human Ror2 [1]): 0.911
- Affinity ELISA pH 7.4 (human Ror2 [2]): 0.405
- ratio, pH 6.0/7.4 (human Ror2 [3]): 2.25
B30: LC-Y031D (antibody, V domains shown)
VH: B4 VH with E29F
VL: B4 VL with Y31D

- Affinity ELISA pH 6.0 (human Ror2 [1]): 1.87
- Affinity ELISA pH 7.4 (human Ror2 [2]): 0.118
- ratio, pH 6.0/7.4 (human Ror2 [3]): 15.9
B31: LC-G049H (antibody, V domains shown)
VH: B4 VH with E29F
VL: B4 VL with G49H

- Affinity ELISA pH 6.0 (human Ror2 [4]): 0.626
- Affinity ELISA pH 7.4 (human Ror2 [5]): 0.232
- ratio, pH 6.0/7.4 (human Ror2 [6]): 2.7
B33: HC-T033C (antibody, V domains shown)
VH: B4 VH with E29F, T33C
VL: B4 VL

- Affinity ELISA pH 6.0 (human Ror2 [4]): 1.11
- Affinity ELISA pH 7.4 (human Ror2 [5]): 0.222
- ratio, pH 6.0/7.4 (human Ror2 [6]): 4.99
B34: HC-T053D (antibody, V domains shown)
VH: B4 VH with E29F, T53D
VL: B4 VL
